Experimental data reported in PMC9866879, “BREVIPEDICELLUS Positively Regulates Salt-Stress Tolerance in Arabidopsis thaliana”.

Assays:
[1] = molecular target: T1, BP (B…US) (Arabidopsis thaliana, UniProt P46639 1-398); assay: competition; unlabeled competitor against biotin-labelled N1; signal gradually decreased; LightShift Chemiluminescent EMSA kit (Thermo) per manufacturer's protocol; buffer, salt, pH and temperature not stated; settings: protein: recombinant; tags: GST (pGEX4T-3); blunt
T1 sequence: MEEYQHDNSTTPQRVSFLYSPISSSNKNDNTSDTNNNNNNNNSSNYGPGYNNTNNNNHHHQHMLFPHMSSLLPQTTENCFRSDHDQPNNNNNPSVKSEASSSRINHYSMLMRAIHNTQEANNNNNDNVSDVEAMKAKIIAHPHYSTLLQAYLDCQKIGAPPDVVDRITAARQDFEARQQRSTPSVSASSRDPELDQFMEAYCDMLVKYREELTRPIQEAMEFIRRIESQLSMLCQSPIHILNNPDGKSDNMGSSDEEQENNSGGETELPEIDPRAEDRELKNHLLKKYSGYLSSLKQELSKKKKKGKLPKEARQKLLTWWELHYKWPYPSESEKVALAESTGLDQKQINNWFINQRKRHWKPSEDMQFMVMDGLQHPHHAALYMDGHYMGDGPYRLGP

[2] = molecular target: T1, BP (B…US); assay: EMSA; LightShift Chemiluminescent EMSA kit (Thermo) per manufacturer's protocol; buffer, salt, pH and temperature not stated; settings: protein: recombinant; tags: GST (pGEX4T-3); label: biotin; blunt

B1: XTH7 promoter probe, unlabeled competitor (dsDNA)
DNA 1: TGTAATGCTGACACGTGTCCCAGT
DNA 2: ACTGGGACACGTGTCAGCATTACA
B1: binds [1].

B2: XTH7 promoter probe (TGAC) (dsDNA)
DNA 1: TGTAATGCTGACACGTGTCCCAGT
DNA 2: ACTGGGACACGTGTCAGCATTACA
B2: binds [2].
